Experimental data reported in patent US5856148A, “Materials and methods for biosynthesis of serine and serine-related products” (priority 1991, dated 1999).

Test system: 3-phosphoglycerate dehydrogenase (PGD)
Experiment: assay of PGD activity (relative catalytic activity)
Format: biochemical, E. coli
From the text: While not critical to the invention, the assay of PGD activity is generally necessary in order to establish the degree of serine sensitivity of the altered enzyme. As is well known in the art, enzyme activity is a function of the total number of enzyme molecules and the catalytic activity of each molecule. Thus, in comparing the catalytic activity of PGD feedback variants, steps must be taken to adequately control for the relative number of PGD molecules for samples in which relative catalytic activity is to be compared. There are a number of ways in which this may be accomplished. However, since it is difficult to adequately establish the level of gene expression in cells transformed with truncated serA genes (due to decreased viability), the most suitable way to compare PGD activity produced from various constructs and the wild type is to chromosomally integrate the altered serA gene containing standard regulatory elements in a single copy, followed by harvesting the transformants and determination of the relative catalytic activity as compared to PGD from wild type cells.
Any method suitable for the measurement of PGD activity may be employed. PGD activity may be measured through detection of either the forward or the reverse reaction by the method of John C. McKitrick and Lewis I. Pizer, J. Bacteriol., 141:235-245 (1980). […]

B1: WT: wild-type E. coli 3-phosphoglycerate dehydrogenase (serA), C-terminal sequence SEQ ID NO: 2 (protein, UniProt P0A9T0 2-410, looked up)
D-3-phosphoglycerate …: AKVSLEKDKIKFLLVEGVHQKALESLRAAGYTNIEFHKGALDDEQLKESIRDAHFIGLRSRTHLTEDVINAAEKLVAIGCFCIGTNQVDLDAAAKRGIPVFNAPFSNTRSVAELVIGELLLLLRGVPEANAKAHRGVWNKLAAGSFEARGKKLGIIGYGHIGTQLGILAESLGMYVYFYDIENKLPLGNATQVQHLSDLLNMSDVVSLHVPENPSTKNMMGAKEISLMKPGSLLINASRGTVVDIPALCDALASKHLAGAAIDVFPTEPATNSDPFTSPLCEFDNVLLTPHIGGSTQEAQENIGLEVAGKLIKYSDNGSTLSAVNFPEVSLPLHGGRRLMHIHENRPGVLTALNKIFAEQGVNIAAQYLQTSAQMGYVVIDIEADEDVAEKALQAMKAIPGTIRARLLY
Units (relative catalytic activity) (Table 1, following chromosomal integration of the construct): 0.05 Units
Units (Table 1A, wildtype and mutated serA alleles): 0.05 Units
